Data reported in US20170128554A1.

Target: Fetuin (denatured; sialylated complex N-linked glycans) (UniProt P12763)
Assay: fetuin pull-down from cell lysates, low salt buffer, SDS-PAGE band quantification

Chain of Fetuin (denatured; sialylated complex N-linked glycans) (P12763 19-359, one chain of several): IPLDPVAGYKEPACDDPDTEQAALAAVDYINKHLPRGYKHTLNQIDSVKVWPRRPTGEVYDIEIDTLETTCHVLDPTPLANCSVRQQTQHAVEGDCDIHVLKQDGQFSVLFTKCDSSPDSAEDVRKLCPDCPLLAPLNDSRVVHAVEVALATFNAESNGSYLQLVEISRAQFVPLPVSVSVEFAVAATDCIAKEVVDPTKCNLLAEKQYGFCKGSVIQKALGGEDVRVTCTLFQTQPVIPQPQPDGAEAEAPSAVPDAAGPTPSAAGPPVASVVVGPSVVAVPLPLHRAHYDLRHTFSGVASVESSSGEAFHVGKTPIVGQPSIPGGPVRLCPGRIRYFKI

## Fbs mutant S155G (from UniProt Q9UK22 113-296)
  fold capacity to interact with fetuin, against wild type Fbs: 2 fold

## Fbs mutant S155A (from UniProt Q9UK22 113-296)
  fold ability to be pulled down by immobilized fetuin, against wild type Fbs: 1.5 times
